This is an account of results in PMC8943916.

For the experiment, the target named is TIM (the TIM-EGFP-LacI bait of the FRAP experiment, not named). Description: FRAP.

B1: TagRFP-PPP1R10-TND (domain or fragment)
chain: KLLNNWLTYSKTTNNIPLLQQILLTLQHLPLTVDHLKQNNTAKLVKQLSKSSEDEELRKLASVLVSDWMAVIRSQ
Turning to B1, the FRAP half-life amounted to 14.9 s.
